T1: Cas2 (Escherichia coli, UniProt P45956 1-94)
T1 sequence: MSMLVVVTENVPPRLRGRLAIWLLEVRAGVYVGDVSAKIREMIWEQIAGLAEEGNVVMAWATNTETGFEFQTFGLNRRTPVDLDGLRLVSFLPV

T2: Cas1 (Escherichia coli, UniProt Q46896 1-305)
T2 sequence: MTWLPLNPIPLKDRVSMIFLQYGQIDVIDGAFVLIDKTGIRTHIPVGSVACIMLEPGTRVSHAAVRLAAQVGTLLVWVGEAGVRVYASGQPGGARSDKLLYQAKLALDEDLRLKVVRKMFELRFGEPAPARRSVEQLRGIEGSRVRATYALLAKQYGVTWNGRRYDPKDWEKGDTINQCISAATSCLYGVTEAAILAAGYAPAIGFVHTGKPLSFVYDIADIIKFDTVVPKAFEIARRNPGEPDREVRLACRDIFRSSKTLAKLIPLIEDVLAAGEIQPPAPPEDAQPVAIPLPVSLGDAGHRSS


Assays:
Cas2 = target: T1, Cas2; assay: EMSA; 5 mM EDTA; EMSA: 7 mM Tris-HCl pH 8.5, 9% glycerol, 50 mM NaCl, 100 ug/ml BSA, 5 mM EDTA, 10 min ambient temperature, 6 nM DNA, 5% acrylamide TBE gel at room temperature; conditions: protein: recombinant; tags: N-terminal His6; chain copies: 2; label: 5'-32P; fork; 25 nt leading arm duplex, 26 nt ssDNA flap
Cas1 [1] = target: T2, Cas1; assay: EMSA; 5 mM EDTA; Cas1 0.1-25 nM, DNA 6 nM; EMSA: 7 mM Tris-HCl pH 8.5, 9% glycerol, 50 mM NaCl, 100 ug/ml BSA, 5 mM EDTA, 10 min ambient temperature, 6 nM DNA, 5% acrylamide TBE gel at room temperature; conditions: protein: recombinant; tags: N-terminal His6; chain copies: 2; label: 5'-32P; fork; 25 nt leading arm duplex, 26 nt ssDNA flap
Cas1 [2] = target: T2, Cas1; assay: EMSA; 5 mM EDTA; Cas1 25 nM, DNA 6 nM; similar to fork-1; EMSA: 7 mM Tris-HCl pH 8.5, 9% glycerol, 50 mM NaCl, 100 ug/ml BSA, 5 mM EDTA, 10 min ambient temperature, 6 nM DNA, 5% acrylamide TBE gel at room temperature; conditions: protein: recombinant; tags: N-terminal His6; chain copies: 2; label: 5'-32P; fork with 4 nt ssDNA gap at branch point

Row | Binder | binding result (Cas2) | binding result (Cas1 [1]) | binding result (Cas1 [2])
1 | fork-1 (mixed) DNA 1: CAACGTCATAGACGATTACATTGCTACATGGAGCTGTCTAGAGGATCCGA DNA 2: TCGGATCCTCTAGACAGCTCCATGATCACTGGCACTGGTAGAATTCGGC DNA 3: GCCGAATTCTACCAGTGCCAGTGAT | no binding | binds | 
2 | fork-1a (mixed) DNA 1: CAACGTCATAGACGATTACATTGCTACATGGAGCTGTCTAGAGGATCCGA DNA 2: TCGGATCCTCTAGACAGCTCCATGATCACTGGCACTGGTAGAATTCGGC DNA 3: GCCGAATTCTACCAGTGCCAGTGAT DNA 4: AATGTAATCGTCTATGACGTTG |  |  | binds
